Bridges are numbered along the chain shown (N, C = ends). [ ]: non-standard residue; d: D form. The star is where a group is joined. Biotin = O=C1N[C@H]2[C@H](CS[C@H]2CCCCC(=O)*)N1; R8 = C=CCCCCCC[C@@](C)(N)C(=O)O; S5 = C=CCCC[C@](C)(N)C(=O)O
Biological target: T1, recombinant HDM2 (amino acids 17-125 of SEQ ID NO:103) (human, UniProt Q00987 17-125)
T1 construct: also called MDM2; not shown: thrombin cleavage site (pET28a vector)
Assay: streptavidin pull-down of biotinylated peptide with recombinant HDM2 and HDMX (1:1 mixture per paragraph 301), western blot

T1 sequence (Q00987 other isoform, or with tags, fused parts or gaps): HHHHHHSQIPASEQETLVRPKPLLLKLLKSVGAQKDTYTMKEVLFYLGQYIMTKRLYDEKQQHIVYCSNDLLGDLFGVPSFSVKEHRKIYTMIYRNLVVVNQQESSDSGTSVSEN

Row | binding result | Binder
1 | no binding | Biotin-LTF[R8]EYWAQD[S5]SAA-NH2 (staple 4-11; SMILES CC(C)C[C@H](NC(=O)CCCC[C@@H]1SC[C@@H]2NC(=O)N[C@@H]21)C(=O)N[C@H](C(=O)N[C@@H](Cc1ccccc1)C(=O)N[C@]1(C)CCCCCCC=CCCC[C@@](C)(C(=O)N[C@@H](CO)C(=O)N[C@@H](C)C(=O)N[C@@H](C)C(N)=O)NC(=O)[C@H](CC(=O)O)NC(=O)[C@H](CCC(N)=O)NC(=O)[C@H](C)NC(=O)[C@H](Cc2c[nH]c3ccccc23)NC(=O)[C@H](Cc2ccc(O)cc2)NC(=O)[C@H](CCC(=O)O)NC1=O)[C@@H](C)O) [ATSP-7041 B26D]
2 | no binding | Biotin-LTF[R8]EYWAQN[S5]SAA-NH2 (staple 4-11; SMILES CC(C)C[C@H](NC(=O)CCCC[C@@H]1SC[C@@H]2NC(=O)N[C@@H]21)C(=O)N[C@H](C(=O)N[C@@H](Cc1ccccc1)C(=O)N[C@]1(C)CCCCCCC=CCCC[C@@](C)(C(=O)N[C@@H](CO)C(=O)N[C@@H](C)C(=O)N[C@@H](C)C(N)=O)NC(=O)[C@H](CC(N)=O)NC(=O)[C@H](CCC(N)=O)NC(=O)[C@H](C)NC(=O)[C@H](Cc2c[nH]c3ccccc23)NC(=O)[C@H](Cc2ccc(O)cc2)NC(=O)[C@H](CCC(=O)O)NC1=O)[C@@H](C)O) [ATSP-7041 B26N]
3 | no binding | Biotin-LTF[R8]EYWAQK[S5]SAA-NH2 (staple 4-11; SMILES CC(C)C[C@H](NC(=O)CCCC[C@@H]1SC[C@@H]2NC(=O)N[C@@H]21)C(=O)N[C@H](C(=O)N[C@@H](Cc1ccccc1)C(=O)N[C@]1(C)CCCCCCC=CCCC[C@@](C)(C(=O)N[C@@H](CO)C(=O)N[C@@H](C)C(=O)N[C@@H](C)C(N)=O)NC(=O)[C@H](CCCCN)NC(=O)[C@H](CCC(N)=O)NC(=O)[C@H](C)NC(=O)[C@H](Cc2c[nH]c3ccccc23)NC(=O)[C@H](Cc2ccc(O)cc2)NC(=O)[C@H](CCC(=O)O)NC1=O)[C@@H](C)O) [ATSP-7041 B26K]
4 | no binding | Biotin-LTF[R8]EYWAQH[S5]SAA-NH2 (staple 4-11; SMILES CC(C)C[C@H](NC(=O)CCCC[C@@H]1SC[C@@H]2NC(=O)N[C@@H]21)C(=O)N[C@H](C(=O)N[C@@H](Cc1ccccc1)C(=O)N[C@]1(C)CCCCCCC=CCCC[C@@](C)(C(=O)N[C@@H](CO)C(=O)N[C@@H](C)C(=O)N[C@@H](C)C(N)=O)NC(=O)[C@H](Cc2c[nH]cn2)NC(=O)[C@H](CCC(N)=O)NC(=O)[C@H](C)NC(=O)[C@H](Cc2c[nH]c3ccccc23)NC(=O)[C@H](Cc2ccc(O)cc2)NC(=O)[C@H](CCC(=O)O)NC1=O)[C@@H](C)O) [ATSP-7041 B26H]
5 | no binding | Biotin-LTF[R8]EYWAQR[S5]SAA-NH2 (staple 4-11; SMILES CC(C)C[C@H](NC(=O)CCCC[C@@H]1SC[C@@H]2NC(=O)N[C@@H]21)C(=O)N[C@H](C(=O)N[C@@H](Cc1ccccc1)C(=O)N[C@]1(C)CCCCCCC=CCCC[C@@](C)(C(=O)N[C@@H](CO)C(=O)N[C@@H](C)C(=O)N[C@@H](C)C(N)=O)NC(=O)[C@H](CCCNC(=N)N)NC(=O)[C@H](CCC(N)=O)NC(=O)[C@H](C)NC(=O)[C@H](Cc2c[nH]c3ccccc23)NC(=O)[C@H](Cc2ccc(O)cc2)NC(=O)[C@H](CCC(=O)O)NC1=O)[C@@H](C)O) [ATSP-7041 B26R]
6 | no binding | Biotin-LTF[R8]EYWAQG[S5]SAA-NH2 (staple 4-11; SMILES CC(C)C[C@H](NC(=O)CCCC[C@@H]1SC[C@@H]2NC(=O)N[C@@H]21)C(=O)N[C@H](C(=O)N[C@@H](Cc1ccccc1)C(=O)N[C@]1(C)CCCCCCC=CCCC[C@@](C)(C(=O)N[C@@H](CO)C(=O)N[C@@H](C)C(=O)N[C@@H](C)C(N)=O)NC(=O)CNC(=O)[C@H](CCC(N)=O)NC(=O)[C@H](C)NC(=O)[C@H](Cc2c[nH]c3ccccc23)NC(=O)[C@H](Cc2ccc(O)cc2)NC(=O)[C@H](CCC(=O)O)NC1=O)[C@@H](C)O) [ATSP-7041 B26G]
7 | no binding | Biotin-LTF[R8]EYWAQP[S5]SAA-NH2 (staple 4-11; SMILES CC(C)C[C@H](NC(=O)CCCC[C@@H]1SC[C@@H]2NC(=O)N[C@@H]21)C(=O)N[C@H](C(=O)N[C@@H](Cc1ccccc1)C(=O)N[C@]1(C)CCCCCCC=CCCC[C@@](C)(C(=O)N[C@@H](CO)C(=O)N[C@@H](C)C(=O)N[C@@H](C)C(N)=O)NC(=O)[C@@H]2CCCN2C(=O)[C@H](CCC(N)=O)NC(=O)[C@H](C)NC(=O)[C@H](Cc2c[nH]c3ccccc23)NC(=O)[C@H](Cc2ccc(O)cc2)NC(=O)[C@H](CCC(=O)O)NC1=O)[C@@H](C)O) [ATSP-7041 B26P]
8 | no binding | Biotin-LTF[R8]EYWAQW[S5]SAA-NH2 (staple 4-11; SMILES CC(C)C[C@H](NC(=O)CCCC[C@@H]1SC[C@@H]2NC(=O)N[C@@H]21)C(=O)N[C@H](C(=O)N[C@@H](Cc1ccccc1)C(=O)N[C@]1(C)CCCCCCC=CCCC[C@@](C)(C(=O)N[C@@H](CO)C(=O)N[C@@H](C)C(=O)N[C@@H](C)C(N)=O)NC(=O)[C@H](Cc2c[nH]c3ccccc23)NC(=O)[C@H](CCC(N)=O)NC(=O)[C@H](C)NC(=O)[C@H](Cc2c[nH]c3ccccc23)NC(=O)[C@H](Cc2ccc(O)cc2)NC(=O)[C@H](CCC(=O)O)NC1=O)[C@@H](C)O) [ATSP-7041 B26W]
9 | no binding | Biotin-LTF[R8]EYWAQV[S5]SAA-NH2 (staple 4-11; SMILES CC(C)C[C@H](NC(=O)CCCC[C@@H]1SC[C@@H]2NC(=O)N[C@@H]21)C(=O)N[C@H](C(=O)N[C@@H](Cc1ccccc1)C(=O)N[C@]1(C)CCCCCCC=CCCC[C@@](C)(C(=O)N[C@@H](CO)C(=O)N[C@@H](C)C(=O)N[C@@H](C)C(N)=O)NC(=O)[C@H](C(C)C)NC(=O)[C@H](CCC(N)=O)NC(=O)[C@H](C)NC(=O)[C@H](Cc2c[nH]c3ccccc23)NC(=O)[C@H](Cc2ccc(O)cc2)NC(=O)[C@H](CCC(=O)O)NC1=O)[C@@H](C)O) [ATSP-7041 B26V]
10 | no binding | Biotin-LTF[R8]EYWAQS[S5]SAA-NH2 (staple 4-11; SMILES CC(C)C[C@H](NC(=O)CCCC[C@@H]1SC[C@@H]2NC(=O)N[C@@H]21)C(=O)N[C@H](C(=O)N[C@@H](Cc1ccccc1)C(=O)N[C@]1(C)CCCCCCC=CCCC[C@@](C)(C(=O)N[C@@H](CO)C(=O)N[C@@H](C)C(=O)N[C@@H](C)C(N)=O)NC(=O)[C@H](CO)NC(=O)[C@H](CCC(N)=O)NC(=O)[C@H](C)NC(=O)[C@H](Cc2c[nH]c3ccccc23)NC(=O)[C@H](Cc2ccc(O)cc2)NC(=O)[C@H](CCC(=O)O)NC1=O)[C@@H](C)O) [ATSP-7041 B26S]
11 | no binding | Biotin-LTF[R8]EYWAQQ[S5]SAA-NH2 (staple 4-11; SMILES CC(C)C[C@H](NC(=O)CCCC[C@@H]1SC[C@@H]2NC(=O)N[C@@H]21)C(=O)N[C@H](C(=O)N[C@@H](Cc1ccccc1)C(=O)N[C@]1(C)CCCCCCC=CCCC[C@@](C)(C(=O)N[C@@H](CO)C(=O)N[C@@H](C)C(=O)N[C@@H](C)C(N)=O)NC(=O)[C@H](CCC(N)=O)NC(=O)[C@H](CCC(N)=O)NC(=O)[C@H](C)NC(=O)[C@H](Cc2c[nH]c3ccccc23)NC(=O)[C@H](Cc2ccc(O)cc2)NC(=O)[C@H](CCC(=O)O)NC1=O)[C@@H](C)O) [ATSP-7041 B26Q]
12 | no binding | Biotin-LTF[R8]EYWAQT[S5]SAA-NH2 (staple 4-11; SMILES CC(C)C[C@H](NC(=O)CCCC[C@@H]1SC[C@@H]2NC(=O)N[C@@H]21)C(=O)N[C@H](C(=O)N[C@@H](Cc1ccccc1)C(=O)N[C@]1(C)CCCCCCC=CCCC[C@@](C)(C(=O)N[C@@H](CO)C(=O)N[C@@H](C)C(=O)N[C@@H](C)C(N)=O)NC(=O)[C@H]([C@@H](C)O)NC(=O)[C@H](CCC(N)=O)NC(=O)[C@H](C)NC(=O)[C@H](Cc2c[nH]c3ccccc23)NC(=O)[C@H](Cc2ccc(O)cc2)NC(=O)[C@H](CCC(=O)O)NC1=O)[C@@H](C)O) [ATSP-7041 B26T]
13 | no binding | Biotin-LTF[R8]EYWAQY[S5]SAA-NH2 (staple 4-11; SMILES CC(C)C[C@H](NC(=O)CCCC[C@@H]1SC[C@@H]2NC(=O)N[C@@H]21)C(=O)N[C@H](C(=O)N[C@@H](Cc1ccccc1)C(=O)N[C@]1(C)CCCCCCC=CCCC[C@@](C)(C(=O)N[C@@H](CO)C(=O)N[C@@H](C)C(=O)N[C@@H](C)C(N)=O)NC(=O)[C@H](Cc2ccc(O)cc2)NC(=O)[C@H](CCC(N)=O)NC(=O)[C@H](C)NC(=O)[C@H](Cc2c[nH]c3ccccc23)NC(=O)[C@H](Cc2ccc(O)cc2)NC(=O)[C@H](CCC(=O)O)NC1=O)[C@@H](C)O) [ATSP-7041 B26Y]

Reference: patent publication US20230192789A1, “STRUCTURALLY-STABILIZED AND HDMX-SELECTIVE P53 PEPTIDES AND USES THEREOF” (Dana-Farber Cancer Institute, Inc., priority 2020, published 2023)
